Earlier results on two substances are cited in PMC10171305.

Read-outs that look alike come from different tables or passages of the source.

Series [1] addresses Spike (SARS-CoV-2) (UniProt P0DTC2).
The target is the same in series [2]. This is another data set of the same source.

Sequence of KREMEN1 (Q96MU8 20-392): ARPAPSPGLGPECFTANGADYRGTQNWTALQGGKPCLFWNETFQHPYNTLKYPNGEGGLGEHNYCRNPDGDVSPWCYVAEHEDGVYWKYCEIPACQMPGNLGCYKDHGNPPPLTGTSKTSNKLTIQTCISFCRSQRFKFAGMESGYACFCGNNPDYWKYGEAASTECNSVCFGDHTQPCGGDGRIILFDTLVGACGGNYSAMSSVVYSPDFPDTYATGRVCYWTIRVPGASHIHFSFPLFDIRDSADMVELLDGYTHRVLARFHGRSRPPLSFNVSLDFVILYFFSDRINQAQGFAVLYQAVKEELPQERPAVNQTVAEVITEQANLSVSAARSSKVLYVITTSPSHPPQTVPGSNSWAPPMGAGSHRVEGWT
Sequence of ASGR1 (P07306 whole entry): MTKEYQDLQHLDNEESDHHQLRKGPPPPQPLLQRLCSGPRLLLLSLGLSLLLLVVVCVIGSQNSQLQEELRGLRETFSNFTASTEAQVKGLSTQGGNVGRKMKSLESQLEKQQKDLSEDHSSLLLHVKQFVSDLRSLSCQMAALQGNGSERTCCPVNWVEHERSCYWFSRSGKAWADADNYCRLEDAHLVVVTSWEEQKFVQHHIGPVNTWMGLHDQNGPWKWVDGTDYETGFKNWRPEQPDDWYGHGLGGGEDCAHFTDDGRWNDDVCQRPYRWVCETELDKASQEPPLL

In general, Kd refers to the equilibrium constant for the complex coming apart. With ASGR1 (from UniProt P07306), the Kd in series [1] is 94.8 nM.

Turning to KREMEN1 (from UniProt Q96MU8), in series [2], the Kd was 19.3 nM.
